Results on two substances are retold here after patent US11261437B2, “Procoagulant compounds” (Bioverativ Therapeutics Inc., priority 2012, dated 2022).

*1 amine or outer side, *2 acyl side, *3 side chain or, on linkers, in order; H or OH if unused. Bridges are numbered along the chain shown (N, C = ends). Where no end group is shown, it is not given here. [ ]: non-standard residue; d: D form. The star is where a group is joined. PABC = O=C(OCc1ccc(N[*:1])cc1)[*:2]; Pip = O=C(O)[C@@H]1CCCCN1; Acm = CC(=O)NC*

Holding throughout (type): biochemical
The target of assay [1] is T1, thrombin (Homo sapiens, UniProt P00734). The assay is described as follows: Thrombin cleavage of Compounds 1, 4, 5 and 6 by 1.4 nM thrombin (HPLC). The settings on record: thrombin 1.4 nM, peptide 50 μM, PBS, 37° C. Here is the method:
FIG. 9 depicts the cleavage of Compounds 1, 4, 5 and 6 by 1.4 nM thrombin. Compounds 1, 4 and 5 incorporate PABC and different thrombin-cleavable substrates.
50 μL of peptide (1 mM) in water was added to 900 μL PBS. The mixture was incubated at 37° C. for 30 min, followed by 50 μL of thrombin (27.8 nM, 1 μg/mL), giving the following approximate initial concentrations: thrombin=1.4 nM, peptide=50 μM. The mixture was incubated at 37° C. Aliquots (95 μL) at various time points were quenched with 5 μL of hirudin (2 μM) and injected into the HPLC (C-18 column, CH3CN/H2O, 0 to 70% over 12 minutes, 60° C. 0.5 mL/min, ? =280 nm). The decreases of peptide peak areas were used to calculate yield.

The test system of the next assay is plasma (TGA assay). The assay is described as follows: Cleavage of Compound 7 during the TGA assay (HPLC of plasma). The settings on record: plasma at the end of TGA assay. Here is the method:
Plasma at the end of TGA assay for Compound 7 was transferred into cold CH3CN (1 mL) and centrifuged at 13 k rpm for 10 min. Supernatant (1.1 mL) was transferred to a new vial and dried by speedvac. The resulting solid was reconstituted with 30 μL of H2O and injected into the HPLC for analysis.

The target in assay [2] is T1, thrombin. Nature of the assay: Thrombin cleavage of Compound 7 (HPLC). The settings on record: 1.4 nm thrombin, peptide 10 μM, PBS, 37° C., after 30 minutes. Here is the method:
FIG. 5 depicts the cleavage of Compound 7 by thrombin. Upon cleavage with 1.4 nM thrombin in PBS, the clean synthetic procoagulant peptide is released, as well as the portion of the molecule comprising the thrombin substrate, the GGGG linker, and the N-terminal cysteine. To conduct the reaction, 21 μL of peptide (0.24 mM) in water was added to 476.5 μL PBS. The mixture was incubated at 37° C. for 30 min, followed by 2.5 μL of thrombin (278 nM, 10 μg/mL), giving the following approximate initial concentrations: thrombin=1.4 nM, peptide=10 μM. The mixture was incubated at 37° C. Aliquots (60 μL) at various time points were quenched with 1 μL of hirudin (10 μM) and injected into the HPLC (C-18 column, CH3CN/H2O, 0 to 70% over 12 minutes, 60° C. 0.5 mL/min, ? =280 nm). Compound 7 was cleaved rapidly by 1.4 nm thrombin. Approximately 90% of Compound 7 was cleaved after 30 minutes.

Consider “Ala-Leu-Val-Pro-Arg-Ile-Val-Gly-Gly-Gln-Glu-NH2 (ALVPRIVGGQE-NH2) [Compound 6]”, for which the “Thrombin-mediated release of peptide IVGGQE” value with thrombin [1] was “not observed”.

For “Cys(Acm)-Gly-Gly-Gly-Gly-Dphe-Pip-Arg-PABC-rRAPGKLTCLASYCWLFWTGIA-NH2 (disulfide) (C(Acm)GGGG[dF][Pip]R[PABC][dR]RAPGKLTCLASYCWLFWTGIA-NH2; disulfide 18-23 (inferred)) [Compound 7]”, in the assay with plasma (TGA assay), the “Cleavage during the course of a TGA assay” value was “cleaved completely”. Also, the “Compound cleaved by thrombin” value in the assay with thrombin [2] is “Approximately 90%”.
